Data on 70 sequences can be found in the domain aggregation screens of Martell et al. (2025).

Some results are limits rather than exact numbers.
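Also: 20 min heating vs room temperature control held 20 min.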

The nature of the data set: soluble fraction after stress (log2 fold change); higher = more stays soluble; pooled small domains, quantitative proteomics. Particulars: stress: 75 degC.
Turning to “HMGRTKEEIFNILKERIVTLQYEPGKILNEIELSEEFEVSRTPIRTVFQQLEAVKLVSIVPRYGVQVA”, the “soluble fraction (log2)” value was -1.15.
Regarding “HMGRYATVPDVVGSTPEVARELIRSEGLRYVLSEETVYSDSDTGTVGRTDPESGTRMSADDEVVVYLS”, the “soluble fraction (log2)” value stood at 0.0649.
The figure for “HMGRYVIQIASFSSKNNAIEAADKLGGFVVQSGRFYRVRTGPFATRGEADAALASARRVGYRDAFIDTS” is -1.59; for “HMGSAIAHAIASLPDRYRELLLLKYDTGYSEKEIAQLLGMTEANVKKTIQRAKAKLQTLLDEMEA” it is -1.43; for “HMGSAKAQLYDLMNAHQVTRNQIQDIVAEKGYFPAGTPIENYPDDFVKGVLVGAWDQVHKAILDKEI” it is 0.326.
Take “HMGSEISLNAFNIPKGSVSVTAGGTKLVENQDYTVDYTLGRIKILNEGILNSGVPIQVNFENNTLFN”: the “soluble fraction (log2)” value was -0.0124.
For “HMGSEYILTIIPTPADATVFINGVKKNSASGVNGQILSWEVTKEGYIPQSGTFTINGKNETIEVVLQPQT”, the “soluble fraction (log2)” value is 0.122.
With “HMGSFFSKATAPVRTTGGDGLYKHGSIWFNTSTGRLFVYIPDDRYTGLLDTHNGDIGYWVDVS” the figure was -2.53.
With “HMGSFGAMLKRNRKLAGLTQEQLAEKLDVSTVAVQNWESGKNQIRSEKLTKLSYLFNIPLETLIHEMLIS” the figure was -1.12; with “HMGSFISADEALAKALSHAGLDQSAIRELEMDSELDDDVPHYSIDFKSGNLEYEYEISATDGSVLKFEQD”, 0.118.
As to “HMGSKEQELVILNNILERQLQAINLQKSAAGPMVNLRNVHNTLTKLVEAAGLKNVETYFTDPVIGAAQ”, the “soluble fraction (log2)” value was -0.0941.
For the sequence “HMGSNTLEDAYKVLGITPDATDDEVRKAYKKMVIQHHPDKVANLGEDVKKAATIKLQEINNAKEIIFKARN”, the “soluble fraction (log2)” value is 0.0129.
The figure for “HMGSQSYVAIVNERFKESDIVELGGSVGSRTGDIITLHFRNSSPNELKNITGIVYLQVANKVTPKL” is -1.26; for “HMGSTDTLEDALEAAEKISYPVIIKATAGGGGRGMKVASSLEELKKVYHTTKLEAKNAFGNDQVYIEKYL” it is 0.162; for “HMGSTYGISRVDNETSRTHGWLVTIQRRGVIYRKHFSDGVFGGKQRSFAAAKEYRDEVIAAHP” it is -2.68.
For “HMGSVVATLRKLIIDGHYPAGTRLAEIPVANALGVSRTPVRLAFRTLQQEGLLQTVGKRGIVVRAF”, the “soluble fraction (log2)” value was -1.28.
In the case of “HMGSWDDFFNAIRLDNPNTLQALLQRGFDPNTVDQQGTPALMRALQEQSYRAAEVLADHPQI”, the “soluble fraction (log2)” value was -0.603.
For “HMGTAGLSPWHKIAVLMIALGPEGASELMRHFGEDEVEQVVQAIADLKNVPSELQDAVLLEMEGALQEG”, the “soluble fraction (log2)” value came to 0.00911.
Regarding “HMGTDVFIMTGGTRKRGATWSYYFDLGKIDGKRQKKEKGGFKTKKEAETALAKAINEYNNAGA”, the “soluble fraction (log2)” value was -0.506.
For “HMGTFIATVEANSLDIYKSMSSNETIGKANKGEVFQILEDMGSGYARVSYNDVEGYLSIRDGDATIEE”, the “soluble fraction (log2)” value turned out to be 0.0208.
Regarding “HMGTGADQVSWKTGDKVTHKKWGEGTVVKVSGSGNDKELDIAFPQQGVKRLLASFAPIKKVT”, the “soluble fraction (log2)” value is -0.0162.
As for “HMGTGQTNEKLAVLTNIQKTQEQILLTLGAKNPLVNLKQYRETLAKILSLSGYKNSNEFFLDPM”, the “soluble fraction (log2)” value was -0.184.
Turning to “HMGTGTYQVWSANGLGVRMRSGPGTGYRILAVYSVGTSVTVLQKGAYWSYIRVGSRTGYMMNQFLVSG”, the “soluble fraction (log2)” value was 0.609.
With “HMGTGVEQGKQYRTLKRDFDGASGIKVNGDFYRLRTSDTGMTELPAGTEVTFERFDGTTAVVHT” the figure was 0.0416.
As to “HMGTHPGIDSGIISDILALKKELPTRSAAKIITMLTLAGKMEENSIHVKTVNRILYQYGYTRDTLS”, the “soluble fraction (log2)” value was -1.92.
As to “HMGTITKRTNPSGAVVWRAQIRINKADMPTYSESKTFSKKSLATEWLKRREAEIEANPDLIL”, the “soluble fraction (log2)” value was -0.929.
Turning to “HMGTKDVNAAPSAVGRTYDEAIEILNGYKAGYLEEYSDTVPKGTVISQSVQDGQVVIVVSLGPKPS”, the “soluble fraction (log2)” value is -0.136.
Take “HMGTKVGAPLPGTITEVKVKVGDTVKAGDAVIILEAMKMQNNIEAEVSGTVSSVLVKEGDTVMEGDALITI”: the “soluble fraction (log2)” value was -0.0573.
For the sequence “HMGTLNLSQAYREWGMAEIEANRDYYGPVRFDDIAFQMSPAGQQLQARFVASYADRLHDAIEGEL”, the “soluble fraction (log2)” value is -0.364.
With “HMGTLRPKGTVVFANLPIAADAKEGDMYNISDQFTTTASFKEGAGNVIPAGSNVYRTDDGFWDVL” the figure was 0.783.
Take “HMGTPEQSAQFEQVLEELKNVPGPVMKAMQRAQDIYGYLPIEIQSRIGQAFGVSLEEVYGIATFYSQFNL”: the “soluble fraction (log2)” value is -2.55.
As to “HMGTQKVQVVNGPINVRSGPGPTFEKIGMVEDQAVYQVVSKKDDWFQISLPGNKTAWVAGWLVKEIK”, the “soluble fraction (log2)” value is -0.035.
Take “HMGTRHPLPYAFAKAHTVLLEDDGDRLLLHAAENSGPSALGEILRLYDVDALERETASTLANRIAVAYAG”: the “soluble fraction (log2)” value worked out at 0.175.
As for “HMGTSGLTIPRFVSLASGTVHMRAGPGVRYPITWIYKRLGTPLMVMAEHEFWRKVRDAEGTEGWMHRSLLS”, the “soluble fraction (log2)” value was found to be 0.0559.
The figure for “HMGTSIMIIIVKPETKKERVNDLIHWIESQNLRTHLSTGDYSTIIGVIGDTSKLDSELIRGLDIVENVKRV” is -2.18; for “HMGTSMDPPVIIVSDGKLIQKGLEVSGLKKQWLYDLIDRKHMKISDIFLLTADKTGKYNLIKRS” it is -0.0253.
As for “HMGTSQSAVKAILAQLISDENKQKPYSDEALSRLLQQQGIDIARRTVAKYREALNIPPAHQRK”, the “soluble fraction (log2)” value amounted to 0.26.
With “HMGTSRVQSILFDQSQWTINRAVHWLNTHHFISTKIDKTDKYLRFRQFDPNPDSHHATKRTSQGITFILE”, the “soluble fraction (log2)” value is -4.37.
For “HMGTTIAMSKLKQVLRWKEEGYSNRKIAQLVGLNKETVNNYISRANADSLSQKELLQLDDFVLDIRLRG”, the “soluble fraction (log2)” value is -1.76.
Take “HMGTTTGKVNATGVNFRTGPSTSYSSMGKLGIDTAVTILGKSGDWYQVKVNSTGKTGYVFAKYITITSVV”: the “soluble fraction (log2)” value was -1.95.
For “HMGTVIGMGRITAGGVNFRETEGGGVIEKLERDTLVEVLTVPSVIDTTHWYQVRYNNRTGYVQAPFVQLLG”, the “soluble fraction (log2)” value is -1.7.
Consider “HMGTVKWFNATKGFGFIVPSDGGKDVFVHITAVQKAGLQGLNEGQKVSYEVAMERGKAAATNLR”, for which the “soluble fraction (log2)” value is -0.782.
Regarding “HMGTVRFYNKERGFGFVVSDDGESVFLPAKALPDGVSDLSPGTRVDYGAALGKKGSQ”, the “soluble fraction (log2)” value came out at 0.0973.
The figure for “HMGVAAPMPGTITDVRVKVGDRVQPRTVVMMLEAMKMENEIFAGRAGVVSQVAVEKGASVNTGDLLISIDP” is -0.311.
As to “HMGVAASEVHREKKESSLQWRQSYNVATDQRRQGKTYKEITEFLNGAELKNSKGGTWSISGVRKMLM”, the “soluble fraction (log2)” value came out at 0.0165.
Regarding “HMGVARGQAQVTTRQHVVQPGETLYQISKQYGVTVAEILRYNADIEDNTVKVGQTLQIPTPLP”, the “soluble fraction (log2)” value was no less than 1.04.
Regarding “HMGVDMAPESIVGKKGVAATELRPAGKVEIHGQVYDAVSVGMFIKRGTGVKVVRYEAAQIYVEPE”, the “soluble fraction (log2)” value was -0.544.
For the sequence “HMGVEALTPRQREVLALMAQGRSNGWIAAELGLSEKAIVQHTSNIYDMLGLAVDADDHRRVLAVIHYLT”, the “soluble fraction (log2)” value was -1.19.
For the sequence “HMGVENDGYVLPRELKKGDTVLIADLGKEATVLSPVDRNGNVEVLAGAAKTRVKLKNLRLIE”, the “soluble fraction (log2)” value was 0.0345.
With “HMGVEVPRGDGSTVVRVRAGSSLADFAERIGADPAALITVLFRMGEMATVNQSLDEDTFKLLGAELGYDVQ”, the “soluble fraction (log2)” value is -0.704.
For “HMGVGIAEAMKHVADEDYGDLSSEFQRIFSAVDGGSTLGDAVRAQMRATSSAGLRRTLSVLAMSVE”, the “soluble fraction (log2)” value was found to be 0.553.
Consider “HMGVGTTDERLAVLNQIASRQTEALEKLGPNNPLVGLGQIRNTLSKMLEISGYPDSNQFFKQVPLDYEPPP”, for which the “soluble fraction (log2)” value is 0.156.
Regarding “HMGVIDTLSGPQKAAAILVAIGRPSASRLLKHFNAEDLRKLAGHARTLEPISPLDFEHLVKQFEDSFAEG”, the “soluble fraction (log2)” value is -0.874.
Take “HMGVIGADIRALRVSRGWTLSDLAEALDRSVGWLSQVERDVSEPALADIRRIAGIFDLPVSFFFSD”: the “soluble fraction (log2)” value is -2.64.
With “HMGVLDFSAQLLKHLEMNGGQTPLGDKSPAEEIYAVFGVSKKVFKKAVGDLYRKRLIEISSNGIRMTS” the figure was -2.14; with “HMGVLGVDALAAAAEVSVDTVRYYQHLGLLEPPRREGRRAVYGPSHLARMGEIRRLAAAGFTLDQIRQLAE”, -2.81.
With “HMGVPTEQQSLIGKSGIAATDLRPSGKVEIDGKRYDAVSNYAGFIAKGTPISVVRYETGQIYVE” the figure was 0.205.
The figure for “HMGYDDVIVINGKNETYGFPTKVEDDPVLSLVIKGDRSIDYAEERRLFYVAMTRTKNRVFFVAP” is 0.0548.
Consider “HMGYGEQEAEATKYMSLHAIMSADETLSKMYTPENQHKLMTHVMEQNGIKNVKDYLTPPSELP”, for which the “soluble fraction (log2)” value is 0.016.
As to “HMGYPYDTVTTAKVNLRAKRSTSSDILKKIPEGATVTVKGVTGTFASVDYNGTSGYVKVDYLV”, the “soluble fraction (log2)” value was -0.46.
The figure for “HMGYSSKISELLTKYNMNASELAQKVGVPPTTIYSIIKRDSKKADIEVLIKIAKLFNVPVEYF” is -2.38.
“HMGYTPGVVIQKSAILEEINQPDLALGMMLEAVKKDSQNLDILNRLVTLLIDQKKNEDAEIYNKKIIT”: the “soluble fraction (log2)” value worked out at 0.234.
With “HMHAGMKSWTIQYEKSPIYGSFLMYKDGNIYIQKEDNVVVHFPLDRFSQNDQAILKSRIEKIDQINKSS” the figure was -0.761; with “HMHAPKIIVLTINPDKIRDVIGPGGKMIKSIVAATGVKMDVEDDGKIHISSSDQKAADEAIRMINEITAEA”, 0.146.
In the case of “HMHAPLEVGSVVRIEGQKALGTILSISDREAIVALGALKTTIPLKRLHGVSPAEAQRHLRKTTPAQAVR”, the “soluble fraction (log2)” value was -0.665.
On to “HMHAQDTLMTRAGETRTVKILEIGLEEIKYRIWGLDDSPVIVIDKIDVKQIVFSNGEKMTIVQ”, for which the “soluble fraction (log2)” value is -1.47.
Turning to “HMHDLTERQREILQTLASGKMALREILSILSQPPSLRTLRDELYHLKRIGLVDTMGYGRGATWFLTQ”, the “soluble fraction (log2)” value was -0.223.
With “HMHDNPLSAQEQRVLDLIAAGKTSKEIASQLFLSDGTVRNYTTSIFNKLNANNRVEAINIAQENGW” the figure was 0.866; with “HMHDPRLPLPGTLLAREFQGRDIVVKVLDNGFEFDGRRYKSLSAIAQEVTGSKWNGFLFFGI”, -1.33; with “HMHDWDITTAAKPEKIFELFSDIPVLETGLKHGTVTLLIDHEPYEVTTFRVDGNYTDGRHPDSVAFT”, 0.189.
